Test results: paper PMC9896932, “Apo and ligand-bound high resolution Cryo-EM structures of the human Kv3.1 channel reveal a novel binding site for positive modulators” (PNAS Nexus, 2022)

Target: the molecule itself
Experiment: cryo-EM structure; purified flWT-Kv3.1a in LMNG 0.01%, Tris 20 mM pH 7.5, KCl 200 mM, DTT 1 mM; 2 mg/ml on the grid; apo (2.65 Å) and with 500 µM Lu AG00563 (3.0 Å), same organisation of subunits in both

B1: wild type full length human Kv3.1 isoform a tetramer (natural protein, UniProt P48547 1-511, looked up)
chain: MGQGDESERIVINVGGTRHQTYRSTLRTLPGTRLAWLAEPDAHSHFDYDPRADEFFFDRHPGVFAHILNYYRTGKLHCPADVCGPLYEEELAFWGIDETDVEPCCWMTYRQHRDAEEALDSFGGAPLDNSADDADADGPGDSGDGEDELEMTKRLALSDSPDGRPGGFWRRWQPRIWALFEDPYSSRYARYVAFASLFFILVSITTFCLETHERFNPIVNKTEIENVRNGTQVRYYREAETEAFLTYIEGVCVVWFTFEFLMRVIFCPNKVEFIKNSLNIIDFVAILPFYLEVGLSGLSSKAAKDVLGFLRVVRFVRILRIFKLTRHFVGLRVLGHTLRASTNEFLLLIIFLALGVLIFATMIYYAERIGAQPNDPSASEHTHFKNIPIGFWWAVVTMTTLGYGDMYPQTWSGMLVGALCALAGVLTIAMPVPVIVNNFGMYYSLAMAKQKLPKKKKKHIPRPPQLGSPNYCKSVVNSPHHSTQSDTCPLAQEEILEINRAGRKPLRGMSI
notes: Kv3.1 (KCNC1), human, canonical isoform a, wild type, full length; C-terminal prescission 3C site followed by GFP, removed by HRV 3C protease on elution from the resin; The GFP tag was still on the protein when it was captured on the anti-GFP resin (co-purification statement); In the model residues 120-191, 218-239, 268-280, 295-311 and 372-376 were not built; also called flWT-Kv3.1a; Kv3.1a; …
stoichiometry N: 4
